Biological target: His-tagged pleckstrin homology (PH) domain of AKT (AKT-PHD) (Marsupenaeus japonicus)
Test: ITC; CaM (70 uM) titrated into 10 uM AKT-PHD in the cell; 25°C; 0.1 M Tris-HCl pH 8.0; 19 injections; Auto-iTC200

## recombinant GST-tagged calmodulin (CaM) (natural protein)
  Kd: 726 nM
  dH: -80.1 kcal/mol

Source: publication PMC9481175
